Data on 94 variants can be found in the supplement of paper PMC10567573.

To fix the notation:
B1: SLC2A12 (parent)
chain: LTLVFFVQITGQPNILFYASTVLK
B2: CAMK2B (parent)
chain: YQQIKAGAYDFPSPEWDTVTPEAK
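Also: lentivirally expressed fusions sorted by FACS into six bins by GFP to DsRed ratio, PSI derived from sequencing read proportions per bin multiplied by bin number.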

Variants of B1 are the subject of the first data set. Kind of data set: protein stability index of a GFP-peptide fusion (GPS, HEK-293T) (PSI 1-6); higher = more stable. The note with it: c terminus: a fixed tail appended.
LTLVFFVQITGQPNILFYASTVLW [K24W]: the protein stability index is 2.76.
LTLVFFVQITGQPNILFYASTVLN [K24N]: the protein stability index was determined as 4.33.
Still for that read-out and setting: for LTLVFFVQITGQPNILFYASTVLS [K24S] the value was 3.98.
As to LTLVFFVQITGQPNILFYASTVLD [K24D], the protein stability index is 2.73.
Regarding LTLVFFVQITGQPNILFYASTVLF [K24F], the protein stability index was 3.17.
The same measure, in the same setting: for LTLVFFVQITGQPNILFYASTVLV [K24V] the value was 3.5; for LTLVFFVQITGQPNILFYASTVLY [K24Y], 4.23; for LTLVFFVQITGQPNILFYASTVLH [K24H], 2.21.
For the variant LTLVFFVQITGQPNILFYASTVLT [K24T], the protein stability index stood at 2.2.
Same read-out and setting: then LTLVFFVQITGQPNILFYASTVLQ [K24Q], with 4.06.
With LTLVFFVQITGQPNILFYASTVLI [K24I], the protein stability index was 2.92.
On to LTLVFFVQITGQPNILFYASTVLP [K24P], for which the protein stability index is 1.8.
On to LTLVFFVQITGQPNILFYASTVLA [K24A], for which the protein stability index came to 2.9.
As for LTLVFFVQITGQPNILFYASTVLE [K24E], the protein stability index is 3.5.
As for LTLVFFVQITGQPNILFYASTVLL [K24L], the protein stability index amounted to 1.12.
On to LTLVFFVQITGQPNILFYASTVYK [L23Y], for which the protein stability index is 3.92.
Still for that read-out and setting: then LTLVFFVQITGQPNILFYASTVTK [L23T], with 3.09.
Take LTLVFFVQITGQPNILFYASTVRK [L23R]: the protein stability index turned out to be 3.18.
LTLVFFVQITGQPNILFYASTVWK [L23W]: the protein stability index is 1.83.
LTLVFFVQITGQPNILFYASTVVK [L23V]: the protein stability index is 2.58.
LTLVFFVQITGQPNILFYASTVSK [L23S]: the protein stability index amounted to 3.26.

Variants of B2 are the subject of another data set. The data set is described as above. Particulars: c terminus: a fixed tail appended.
Consider YQQAKAGAYDFPSPEWDTVTPEAK [I4A], for which the protein stability index amounted to 3.46.
In the case of YQQHKAGAYDFPSPEWDTVTPEAK [I4H], the protein stability index worked out at 3.56.
In the case of YQQLKAGAYDFPSPEWDTVTPEAK [I4L], the protein stability index was 3.81.
The same measure, in the same setting: for YQQPKAGAYDFPSPEWDTVTPEAK [I4P] the value was 3.58.
On the same count and under the same terms, then YQQMKAGAYDFPSPEWDTVTPEAK [I4M], with 3.66.
In the case of YQQEKAGAYDFPSPEWDTVTPEAK [I4E], the protein stability index worked out at 4.26.
In the case of YQQKKAGAYDFPSPEWDTVTPEAK [I4K], the protein stability index is 3.42.
As to YQQDKAGAYDFPSPEWDTVTPEAK [I4D], the protein stability index is 4.32.
Consider YQQGKAGAYDFPSPEWDTVTPEAK [I4G], for which the protein stability index was 3.34.
Turning to YQQNKAGAYDFPSPEWDTVTPEAK [I4N], the protein stability index was 3.41.
YQQQKAGAYDFPSPEWDTVTPEAK [I4Q]: the protein stability index stood at 3.78.
YQQRKAGAYDFPSPEWDTVTPEAK [I4R]: the protein stability index is 3.06.
Take YQQCKAGAYDFPSPEWDTVTPEAK [I4C]: the protein stability index turned out to be 3.09.
Regarding YQQFKAGAYDFPSPEWDTVTPEAK [I4F], the protein stability index is 3.19.
The same measure, in the same setting: for YQQTKAGAYDFPSPEWDTVTPEAK [I4T] the value was 3.58.
Consider YQQSKAGAYDFPSPEWDTVTPEAK [I4S], for which the protein stability index came out at 3.02.
With SQQIKAGAYDFPSPEWDTVTPEAK [Y1S], the protein stability index is 4.94.
Take GQQIKAGAYDFPSPEWDTVTPEAK [Y1G]: the protein stability index came to 5.11.
The same measure, in the same setting: then CQQIKAGAYDFPSPEWDTVTPEAK [Y1C], with 4.45; and HQQIKAGAYDFPSPEWDTVTPEAK [Y1H], with 4.58.
The same measure, in the same setting: then AQQIKAGAYDFPSPEWDTVTPEAK [Y1A], with 4.94; and KQQIKAGAYDFPSPEWDTVTPEAK [Y1K], with 4.88; and DQQIKAGAYDFPSPEWDTVTPEAK [Y1D], with 5.38.
In the case of QQQIKAGAYDFPSPEWDTVTPEAK [Y1Q], the protein stability index stood at 4.92.
Regarding FQQIKAGAYDFPSPEWDTVTPEAK [Y1F], the protein stability index was 3.33.
On the same count and under the same terms, for IQQIKAGAYDFPSPEWDTVTPEAK [Y1I] the value was 3.89; for LQQIKAGAYDFPSPEWDTVTPEAK [Y1L], 4.75; for NQQIKAGAYDFPSPEWDTVTPEAK [Y1N], 5.21.
For PQQIKAGAYDFPSPEWDTVTPEAK [Y1P], the protein stability index was 4.94.
Same read-out and setting: then EQQIKAGAYDFPSPEWDTVTPEAK [Y1E], with 5.13; and RQQIKAGAYDFPSPEWDTVTPEAK [Y1R], with 4.83.
Same read-out and setting: then MQQIKAGAYDFPSPEWDTVTPEAK [Y1M], with 5.04; and VQQIKAGAYDFPSPEWDTVTPEAK [Y1V], with 4.69.
Take TQQIKAGAYDFPSPEWDTVTPEAK [Y1T]: the protein stability index was determined as 4.88.
Consider WQQIKAGAYDFPSPEWDTVTPEAK [Y1W], for which the protein stability index amounted to 4.15.
On the same count and under the same terms, then YPQIKAGAYDFPSPEWDTVTPEAK [Q2P], with 3.67; and YLQIKAGAYDFPSPEWDTVTPEAK [Q2L], with 3.35; and YGQIKAGAYDFPSPEWDTVTPEAK [Q2G], with 3.7.
As for YMQIKAGAYDFPSPEWDTVTPEAK [Q2M], the protein stability index came to 3.95.
With YEQIKAGAYDFPSPEWDTVTPEAK [Q2E], the protein stability index is 4.64.
Turning to YVQIKAGAYDFPSPEWDTVTPEAK [Q2V], the protein stability index turned out to be 1.8.
Consider YAQIKAGAYDFPSPEWDTVTPEAK [Q2A], for which the protein stability index was determined as 3.12.
Still for that read-out and setting: for YWQIKAGAYDFPSPEWDTVTPEAK [Q2W] the value was 3.06; for YSQIKAGAYDFPSPEWDTVTPEAK [Q2S], 4.34.
With YHQIKAGAYDFPSPEWDTVTPEAK [Q2H], the protein stability index was 2.88.
As for YRQIKAGAYDFPSPEWDTVTPEAK [Q2R], the protein stability index came to 4.06.
The same measure, in the same setting: then YYQIKAGAYDFPSPEWDTVTPEAK [Q2Y], with 3.6; and YKQIKAGAYDFPSPEWDTVTPEAK [Q2K], with 3.8.
The same measure, in the same setting: then YCQIKAGAYDFPSPEWDTVTPEAK [Q2C], with 2.87; and YNQIKAGAYDFPSPEWDTVTPEAK [Q2N], with 4.51.
In the case of YFQIKAGAYDFPSPEWDTVTPEAK [Q2F], the protein stability index came to 3.46.
Turning to YTQIKAGAYDFPSPEWDTVTPEAK [Q2T], the protein stability index was found to be 3.67.
As for YDQIKAGAYDFPSPEWDTVTPEAK [Q2D], the protein stability index came to 4.78.
With YIQIKAGAYDFPSPEWDTVTPEAK [Q2I], the protein stability index is 2.28.
On to YQTIKAGAYDFPSPEWDTVTPEAK [Q3T], for which the protein stability index was 3.28.
With YQIIKAGAYDFPSPEWDTVTPEAK [Q3I], the protein stability index was determined as 3.15.
As to YQSIKAGAYDFPSPEWDTVTPEAK [Q3S], the protein stability index amounted to 2.8.
Same read-out and setting: then YQRIKAGAYDFPSPEWDTVTPEAK [Q3R], with 2.22; and YQWIKAGAYDFPSPEWDTVTPEAK [Q3W], with 2.09; and YQHIKAGAYDFPSPEWDTVTPEAK [Q3H], with 3.28.
The same measure, in the same setting: for YQDIKAGAYDFPSPEWDTVTPEAK [Q3D] the value was 3.94; for YQMIKAGAYDFPSPEWDTVTPEAK [Q3M], 2.88.
As to YQCIKAGAYDFPSPEWDTVTPEAK [Q3C], the protein stability index was found to be 2.17.
On the same count and under the same terms, then YQNIKAGAYDFPSPEWDTVTPEAK [Q3N], with 3.62.
As for YQFIKAGAYDFPSPEWDTVTPEAK [Q3F], the protein stability index worked out at 2.55.
The same measure, in the same setting: then YQGIKAGAYDFPSPEWDTVTPEAK [Q3G], with 2.68; and YQEIKAGAYDFPSPEWDTVTPEAK [Q3E], with 4.59.
As to YQYIKAGAYDFPSPEWDTVTPEAK [Q3Y], the protein stability index came out at 2.6.
Take YQVIKAGAYDFPSPEWDTVTPEAK [Q3V]: the protein stability index came to 3.44.
For YQPIKAGAYDFPSPEWDTVTPEAK [Q3P], the protein stability index came to 3.03.
YQKIKAGAYDFPSPEWDTVTPEAK [Q3K]: the protein stability index amounted to 2.75.
On to YQLIKAGAYDFPSPEWDTVTPEAK [Q3L], for which the protein stability index stood at 3.38.
Consider YQAIKAGAYDFPSPEWDTVTPEAK [Q3A], for which the protein stability index was 2.11.
